Blank lines part the entries; values can stand above or below the substance they belong to.
Columns and labels:
[1] = biological target: D3H44 light chain T178R, N-terminal HA or FLAG tag; assay: LCCA, L1:L2 DNA 1:3, SPR of light chain tags; competing light chain m11
[2] = biological target: D3H44 light chain T178R, N-terminal HA or FLAG tag; assay: LCCA, L1:L2 DNA 1:9, SPR of light chain tags; competing light chain m11
[3] = biological target: D3H44 light chain Q124E_Q160E_T180E, N-terminal HA or FLAG tag; assay: LCCA, L1:L2 DNA 1:9, SPR of light chain tags; competing light chain m10
[4] = biological target: D3H44 light chain Q124E_Q160E_T180E, N-terminal HA or FLAG tag; assay: LCCA, L1:L2 DNA 1:3, SPR of light chain tags; competing light chain m10
[5] = biological target: D3H44 light chain Q124R_T178R with N-terminal HA or FLAG tag; assay: LCCA (SPR tag readout), L1:L2 DNA 1:3, normalized to 1:1; competing light chain m11
[6] = biological target: D3H44 light chain Q124E_T180E with N-terminal HA or FLAG tag; assay: LCCA (SPR tag readout), L1:L2 DNA 1:3, normalized to 1:1; competing light chain m14
[7] = biological target: D3H44 light chain Q124E_Q160E_T180E with N-terminal HA or FLAG tag; assay: LCCA (SPR tag readout), L1:L2 DNA 1:9, normalized to 1:1; competing light chain m19
[8] = biological target: D3H44 light chain Q124E_Q160E_T180E with N-terminal HA or FLAG tag; assay: LCCA (SPR tag readout), L1:L2 DNA 1:9, normalized to 1:1; competing light chain m15
[9] = biological target: D3H44 light chain Q124R_T178R with N-terminal HA or FLAG tag; assay: LCCA (SPR tag readout), L1:L2 DNA 1:3, normalized to 1:1; competing light chain m13
[10] = biological target: D3H44 light chain T178R with N-terminal HA or FLAG tag; assay: as above
[11] = biological target: D3H44 light chain Q124R_Q160K_T178R with N-terminal HA or FLAG tag; assay: as above
[12] = biological target: D3H44 light chain Q124K_T178R with N-terminal HA or FLAG tag; assay: as above
[13] = biological target: D3H44 light chain Q124R_T178R with N-terminal HA or FLAG tag; assay: LCCA (SPR tag readout), L1:L2 DNA 1:9, normalized to 1:1; competing light chain m13
[14] = biological target: D3H44 light chain Q124R_T178K with N-terminal HA or FLAG tag; assay: LCCA (SPR tag readout), L1:L2 DNA 1:3, normalized to 1:1; competing light chain m18
[15] = biological target: D3H44 light chain Q124R_T178R with N-terminal HA or FLAG tag; assay: as above
[16] = biological target: D3H44 light chain T178R with N-terminal HA or FLAG tag; assay: as above
[17] = biological target: D3H44 light chain Q124R_T178K with N-terminal HA or FLAG tag; assay: LCCA (SPR tag readout), L1:L2 DNA 1:9, normalized to 1:1; competing light chain m18
[18] = biological target: D3H44 light chain Q124R_T178R with N-terminal HA or FLAG tag; assay: as above
[19] = biological target: D3H44 light chain T178R with N-terminal HA or FLAG tag; assay: as above
[20] = biological target: D3H44 light chain Q124E_Q160E_T180E with N-terminal HA or FLAG tag; assay: LCCA (SPR tag readout), L1:L2 DNA 1:9, normalized to 1:1; competing light chain m9
[21] = biological target: D3H44 light chain Q124E_T180E with N-terminal HA or FLAG tag; assay: as above
[22] = biological target: D3H44 light chain Q124E_T178E with N-terminal HA or FLAG tag; assay: as above
[23] = biological target: D3H44 light chain Q124R_T178R with N-terminal HA or FLAG tag; assay: LCCA (SPR tag readout), L1:L2 DNA 1:9, normalized to 1:1; competing light chain m11
[24] = biological target: D3H44 light chain Q124E_Q160E_T180E with N-terminal HA or FLAG tag; assay: LCCA (SPR tag readout), L1:L2 DNA 1:3, normalized to 1:1; competing light chain m9
[25] = biological target: D3H44 light chain Q124E_T180E with N-terminal HA or FLAG tag; assay: as above
[26] = biological target: D3H44 light chain Q124E_T178E with N-terminal HA or FLAG tag; assay: as above
[27] = biological target: D3H44 light chain Q124E_Q160E_T180E with N-terminal HA or FLAG tag; assay: LCCA (SPR tag readout), L1:L2 DNA 1:3, normalized to 1:1; competing light chain m19
[28] = biological target: D3H44 light chain Q124E_T180E with N-terminal HA or FLAG tag; assay: as above
[29] = biological target: D3H44 light chain Q124E_T180E with N-terminal HA or FLAG tag; assay: LCCA (SPR tag readout), L1:L2 DNA 1:3, normalized to 1:1; competing light chain m12
[30] = biological target: D3H44 light chain Q124E_Q160E_T180E with N-terminal HA or FLAG tag; assay: LCCA (SPR tag readout), L1:L2 DNA 1:3, normalized to 1:1; competing light chain m15

H1L1:H1L2 normalized median ratio [1]: 89 share of 100
H1L1:H1L2 normalized median scalar value ln(r1/f1) [1]: 2.1
H1L1:H1L2 normalized median ratio [2]: 89 share of 100
H1L1:H1L2 normalized median scalar value ln(r1/f1) [2]: 2.09
H1L1:H1L2 normalized median ratio [3]: 11 share of 100
H1L1:H1L2 normalized median ratio [4]: 11 share of 100
Substance: D3H44 Fab heavy chain L143D_K145T_Q179E, C-terminal ABD2-His6 tag

H2L2:H2L1 normalized median ratio [5]: 4%
H2L2:H2L1 normalized median ratio [6]: 97%
H2L2:H2L1 normalized median ratio [7]: 87%
H2L2:H2L1 normalized median ratio [8]: 89%
H2L2:H2L1 normalized median ratio [9]: 6%
H2L2:H2L1 normalized median ratio [10]: 4%
H2L2:H2L1 normalized median ratio [11]: 3%
H2L2:H2L1 normalized median ratio [12]: 2%
H2L2:H2L1 normalized median ratio [13]: 11%
H2L2:H2L1 normalized median ratio [14]: 8%
H2L2:H2L1 normalized median ratio [15]: 6%
H2L2:H2L1 normalized median ratio [16]: 9%
H2L2:H2L1 normalized median ratio [17]: 11%
H2L2:H2L1 normalized median ratio [18]: 6%
H2L2:H2L1 normalized median ratio [19]: 13%
H2L2:H2L1 normalized median ratio [20]: 94%
H2L2:H2L1 normalized median ratio [21]: 89%
H2L2:H2L1 normalized median ratio [22]: 96%
H2L2:H2L1 normalized median ratio [23]: 4%
H2L2:H2L1 normalized median ratio [24]: 94%
H2L2:H2L1 normalized median ratio [25]: 94%
H2L2:H2L1 normalized median ratio [26]: 96%
H2L2:H2L1 normalized median ratio [27]: 91%
H2L2:H2L1 normalized median ratio [28]: 96%
H2L2:H2L1 normalized median ratio [29]: 98%
H2L2:H2L1 normalized median ratio [30]: 92%
Substance: D3H44 Fab heavy chain S186K with C-terminal ABD2-His6 tag

Reference: patent publication US11306156
